Results reported in publication PMC8556260.
pKd: −log10 of the molar value.

Legend:
[1] = target: PIR91 ribosome-bound nascent chain (full-length PIR RNC, wild type) (UniProt O88900); assay: cross-linking; titration of resuspended PIR91 RNCs with DnaK/DnaJ/GrpE (5:1:2, up to 50/10/25 µM), ADP, 50 mM KCl, 5 mM Mg2+, then EDC 80 mM, 30 min, 30 °C; fraction cross-linked to DnaK fitted to a two-state model; apparent
[2] = target: PIR91 ribosome-bound nascent chain (full-length PIR RNC, wild type) (UniProt O88900); assay: cross-linking; titration of resuspended PIR91 RNCs with TF (up to 40 µM), 10 min on ice, then EDC 80 mM, 30 min, 30 °C; standard resuspension buffer, 10 mM Mg(OAc)2, pH 7.0; fraction cross-linked fitted to a two-state model; apparent

E. coli Hsp70 (DnaK), purified, ADP-bound, added as K/J/E mixture (from UniProt P0A6Y8 1-638) (natural protein)
pKd [1]: 3.96

Trigger factor (TF), purified wild type (from UniProt P0A850 1-432) (natural protein)
pKd [2]: 5.42
